± gives the half width of the 95% confidence interval.
Tests used:
[1] = folding stability dG unfold from chymotrypsin proteolysis; higher = more stable
Outline: (§1)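 Digests were run with trypsin and chymotrypsin at 11 concentrations in threefold dilutions, plus a no-protease condition, on designed mini-proteins in a PA-tagged cDNA display construct. The mini-proteins were under 80 residues, had no cysteine, and were kept only when AlphaFold2 dimer inter-PAE was above 15. After sequencing, Bayesian fitting of the counts gave K50, from which unfolding free energy was derived against a sequence-predicted unfolded-state K50 and a shared folded-state K50, per protease or combined.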

[2] = folding stability dG unfold from trypsin proteolysis; higher = more stable
Outline: as §1

[3] = folding stability dG unfold (combined trypsin and chymotrypsin); higher = more stable
Outline: as §1

Sequence	folding stability dG unfold [1] [kcal/mol]	folding stability dG unfold [2] [kcal/mol]	folding stability dG unfold [3] [kcal/mol]
SAGGSAKYYYIVAEIDLPNKKVRFVKKVKKGDVEKFKAEIKKAFPGKKIKVKVIEFESEEEAKKAASAGGSA [r15_889_TrMRF]	4.373 ± 0.043	3.13 ± 0.14	4.01 ± 0.088
SAGGSALADRIAELARELGFEPVEIRYDPETGEVYALVRKPGGLLLRMRVEVDDDELHIEIEPLTDSAGGSA [r15_561_TrMRF]	5.27 ± 0.058	4.34 ± 0.1	5.18 ± 0.095
SAGGSALADRIKEIARENGFEPESVQFDPGNGHLMISIEPPDGRGVVVQIDIDNNNLKIQIQPLDDSAGGSA [r15_561_TrROS]	0.792 ± 0.099	1.2 ± 0.075	1.03 ± 0.13
SAGGSALRIPPGEKIKVRNPDNGKPFEFKVTNWQMNPNGNAYFQVEMTSDGKKVKWPIPLDDIEVVSAGGSA [r15_62_TrROS]	0.358 ± 0.37	-0.397 ± 0.21	0.0757 ± 0.28
SAGGSAMAPNVRPIPIFIDVPAEPFTRDPDGRIGLTPEELARRLAEEIRARTGAPIDTIVVHFHEPSAGGSA [r15_415_TrMRF]	-0.0348 ± 0.18	0.773 ± 0.11	0.409 ± 0.092
SAGGSAMAYLVRAELEVEGPDGRRERLELVLVAEDLPLEEALAAAREAAAELGAELVSVEVEPLEPSAGGSA [r15_550_TrMRF]	2.55 ± 0.039	0.858 ± 0.061	2.21 ± 0.098
SAGGSAMESFLGAAKEVLSQMEPGEIVLLPLERPDDKPLLVLLDPTTRRLVVFYPDGGYEEFDFPESAGGSA [r15_977_TrMRF]	2.9 ± 0.064	2.74 ± 0.046	2.86 ± 0.079
SAGGSAMFKSPSDKYFEPIAVIDLEKASPETLKALLEENPGKLLVIPKSTGKPRLIPAEELLELLGSAGGSA [r15_904_TrMRF]	-0.154 ± 0.41	0.0892 ± 0.21	0.0646 ± 0.2
SAGGSAMFVVVEVESPEELRELVEEEDPSVFLLPTEDGEERLVVVDPENPENIRVIPLERPELLAPSAGGSA [r15_11_TrMRF]	-0.285 ± 0.27	0.535 ± 0.042	0.27 ± 0.068
SAGGSAMGTLRLGFVTGPDEEGRYEILDVTLEPGEPVLVTLRARFTFPDGDSVEVPFRFVVPPELLSAGGSA [r15_187_TrMRF]	3.15 ± 0.048	2.78 ± 0.038	2.96 ± 0.12
SAGGSAMIEIEINGKKYKIEIVKVEEKDGKVKVKIKIKDKETGKEIEIEIEMPKEELEKLLKEILSSAGGSA [r15_944_TrROS_Hall]	3.97 ± 0.28	2.79 ± 0.27	3.65 ± 0.48
SAGGSAMIKIKLPNGEVAEIELSPDGKKVLIRYKDGSIEEIEIKDGKITKIKPLPNAPPNAEIVEVSAGGSA [r15_709_TrROS_Hall]	2.72 ± 0.041	1.92 ± 0.029	2.47 ± 0.077
SAGGSAMITLEVEVPPGNAEEAAEAVAEELAEKLGVEVTIEKVEVEYDPVTNLTRVPVEIKINPPLSAGGSA [r15_70_JUSTAS]	0.557 ± 0.11	1.18 ± 0.071	0.618 ± 0.24
SAGGSAMITVDPGEKTVTVEIDLPVYKSYTYPGGETKAYPLELPEEEAKKVADEIAEAFKKKLEGESAGGSA [r15_365_JUSTAS]	0.49 ± 0.25	-0.499 ± 0.25	0.134 ± 0.24
SAGGSAMITVKLEGKPVTVEILSREPKGRLVKAQAVVHRPDDGTEKTVSGLLSEEEIEKAIEEALASAGGSA [r15_944_JUSTAS]	0.143 ± 0.11	-0.917 ± 0.32	-0.15 ± 0.12
SAGGSAMKGLSVERVELDGEEVVRIEIETPAGGSETLELSLRDPEAVEAYLAALKAAGVIAEILPESAGGSA [r15_575_JUSTAS]	0.713 ± 0.11	1.24 ± 0.027	1.11 ± 0.14
SAGGSAMKIEITVEKNENGELTITVKIYDKNGKLVKEIKLKVKTEEEAKKALKELAEKLGIEVEPESAGGSA [r15_242_TrROS_Hall]	3.67 ± 0.16	2.03 ± 0.48	3.36 ± 0.44
SAGGSAMKKIKIEVEKKGDEYIVRIKIKNPDGKIEEIEIKLKDEEEAKKLAEELLKEGKIDEIELESAGGSA [r15_575_TrROS_Hall]	2.29 ± 0.077	2.7 ± 0.18	2.57 ± 0.18
